pKd: −log10 of the molar value.
Biological target: SARS-CoV-2 S protein trimer, His Tag (in house, EXPI293F cells) (SARS-CoV-2) (UniProt P0DTC2)

Recombinant human mannose binding lectin (MBL), sequence (P11226 21-248 limits assumed): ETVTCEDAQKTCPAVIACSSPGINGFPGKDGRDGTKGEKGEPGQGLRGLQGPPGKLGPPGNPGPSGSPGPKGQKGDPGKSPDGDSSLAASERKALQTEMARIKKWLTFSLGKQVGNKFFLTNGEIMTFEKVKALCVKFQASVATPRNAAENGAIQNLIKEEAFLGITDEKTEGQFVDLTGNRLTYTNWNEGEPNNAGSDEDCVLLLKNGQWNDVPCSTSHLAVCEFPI

## Recombinant human mannose binding lectin (MBL) (from UniProt P11226 21-248)
  pKd: 7.47
  koff: 0.00073 s⁻¹
  kon: 21000 M⁻¹ s⁻¹
